In general, Kd refers to the concentration at which binding is half-saturated.

For 2 substances, Kd, neuronal death (LDH release, cortical neurons, 50 uM NMDA, 0.3 uM tPA) and potentiation of NMDAR-mediated excitotoxicity (LDH release, cortical neurons, 50 uM NMDA, 0.3 uM tPA) results are on record in patent US20140212406A1.

One assay addresses fibrin. The assay is described as follows: binding of tPA variants to a solid-phase fibrin surface on PVC plates (3 independent experiments, 12 doses).
For assay [1], the target named is N-methyl-D-aspartate receptor on primary cultured mouse cortical neurons (mouse) (UniProt P35438). Nature of the assay: cell-based or functional assay.

Consider “rat tPA with complete deletion of its K2 domain (deletion of the amino acids 181 to 262), 6xHis-tagged (from UniProt P19637 33-212; P19637 295-559) (enzyme)”, for which the Kd in the assay with fibrin was determined as 0.82 nM.

With “rat wild type tPA (Rattus norvegicus), 6xHis-tagged (from UniProt P19637 33-559) (enzyme)”, in assay [1], the neuronal death (LDH release, cortical neurons, 50 uM NMDA, 0.3 uM tPA) turned out to be 71% and the potentiation of NMDAR-mediated excitotoxicity (LDH release, cortical neurons, 50 uM NMDA, 0.3 uM tPA) was determined as 39%.
